{"source": "patent US20250353926A1", "about": "(ENLAZA THERAPEUTICS, published 2025)", "binders": {"B1": {"name": "C31 (bispecific antibody)", "chain": "QVQLQESGGGSVEAGGSLRLSCARSGWPYSTYSMNWFRQAPGKEREAVAGISSTMSGIIFAESKAGQFTISQDNAKNTVYLQMNNLKPEDTAIYYCAARRYFSLSSSSDDFDYWGQGTQVTVSSGGGGSGGGGSGGGGSGGGGSEVQLVESGGGPVQAGGSLRLSCAASGRTYRGYSMGWFRQAPGKEREFVAAIVWSGGNTYYEDSVKGRFTISRDNAKNTMYLQMTSLKPEDSATYYCAAKIRPYIFKIAGQYDYWGQGTLVTVSSAAAYPYDVPDYGSSPSTPPTPSPSTPPHHHHHH"}, "B2": {"name": "C30 (bispecific antibody)", "chain": "EVQLVESGGGLVQPGGSLRLSCVASGDVHKINFLGWYRQAPGKEREKVAHISIGDQTDYADSAKGRFTISRDESKNMVYLQMNSLKPEDTAVYFCRAFSRIYPYDYWGQGTLVTVSSGGGGSGGGGSGGGGSGGGGSQVQLQESGGGSVEAGGSLRLSCARSGWPYSTYSMNWFRQAPGKEREAVAGISSTMSGIIFAESKAGQFTISQDNAKNTVYLQMNNLKPEDTAIYYCAARRXFSLSSSSDDFDYWGQGTQVTVSSAAAYPYDVPDYGSSPSTPPTPSPSTPPHHHHHH", "modifications": "FSY (fluorosulfonyltyrosine) at the position printed X in SEQ ID NO: 45 (position 101 of the anti-PSMA sdAb domain)"}, "B3": {"name": "C29 (bispecific antibody)", "chain": "EVQLVESGGGLVQPGGSLRLSCVASGDVHKINFLGWYRQAPGKEREKVAHISIGDQTDYADSAKGRFTISRDESKNMVYLQMNSLKPEDTAVYFCRAFSRIYPYDYWGQGTLVTVSSGGGGSGGGGSGGGGSGGGGSQVQLQESGGGSVEAGGSLRLSCARSGWPYSTYSMNWFRQAPGKEREAVAGISSTMSGIIFAESKAGQFTISQDNAKNTVYLQMNNLKPEDTAIYYCAARRYFSLSSSSDDFDYWGQGTQVTVSSAAAYPYDVPDYGSSPSTPPTPSPSTPPHHHHHH"}, "B4": {"name": "C32 (bispecific antibody)", "chain": "QVQLQESGGGSVEAGGSLRLSCARSGWPYSTYSMNWFRQAPGKEREAVAGISSTMSGIIFAESKAGQFTISQDNAKNTVYLQMNNLKPEDTAIYYCAARRYFSLSSSSDDFDYWGQGTQVTVSSGGGGSGGGGSGGGGSGGGGSEVQLVESGGGLVQPGGSLRLSCAASGDIYKSFDMGWYRQAPGKQRDLVAVIGSRGNNRGRTNYADSVKGRFTISRDGTGNTVYLLMNKLRPEDTAIYYCNTAPLVAGRPWGRGTLVTVSSAAAYPYDVPDYGSSPSTPPTPSPSTPPHHHHHH"}, "B5": {"name": "C34 (bispecific antibody)", "chain": "QVQLQESGGGSVEAGGSLRLSCARSGWPYSTYSMNWFRQAPGKEREAVAGISSTMSGIIFAESKAGQFTISQDNAKNTVYLQMNNLKPEDTAIYYCAARRXFSLSSSSDDFDYWGQGTQVTVSSGGGGSGGGGSGGGGSGGGGSEVQLVESGGGLVQPGGSLRLSCVASGDVHKINFLGWYRQAPGKEREKVAHISIGDQTDYADSAKGRFTISRDESKNMVYLQMNSLKPEDTAVYFCRAFSRIYPYDYWGQGTLVTVSSAAAYPYDVPDYGSSPSTPPTPSPSTPPHHHHHH", "modifications": "FSY (fluorosulfonyltyrosine) at the position printed X in SEQ ID NO: 49 (position 101 of the anti-PSMA sdAb domain)"}, "B6": {"name": "C33 (bispecific antibody)", "chain": "QVQLQESGGGSVEAGGSLRLSCARSGWPYSTYSMNWFRQAPGKEREAVAGISSTMSGIIFAESKAGQFTISQDNAKNTVYLQMNNLKPEDTAIYYCAARRYFSLSSSSDDFDYWGQGTQVTVSSGGGGSGGGGSGGGGSGGGGSEVQLVESGGGLVQPGGSLRLSCVASGDVHKINFLGWYRQAPGKEREKVAHISIGDQTDYADSAKGRFTISRDESKNMVYLQMNSLKPEDTAVYFCRAFSRIYPYDYWGQGTLVTVSSAAAYPYDVPDYGSSPSTPPTPSPSTPPHHHHHH"}, "B7": {"name": "C27 (bispecific antibody)", "chain": "EVQLVESGGGPVQAGGSLRLSCAASGRTYRGYSMGWFRQAPGKEREFVAAIVWSGGNTYYEDSVKGRFTISRDNAKNTMYLQMTSLKPEDSATYYCAAKIRPYIFKIAGQYDYWGQGTLVTVSSGGGGSGGGGSGGGGSGGGGSQVQLQESGGGSVEAGGSLRLSCARSGWPYSTYSMNWFRQAPGKEREAVAGISSTMSGIIFAESKAGQFTISQDNAKNTVYLQMNNLKPEDTAIYYCAARRXFSLSSSSDDFDYWGQGTQVTVSSAAAYPYDVPDYGSSPSTPPTPSPSTPPHHHHHH", "modifications": "FSY (fluorosulfonyltyrosine) at the position printed X in SEQ ID NO: 42 (position 101 of the anti-PSMA sdAb domain)"}, "B8": {"name": "C26 (bispecific antibody)", "chain": "EVQLVESGGGPVQAGGSLRLSCAASGRTYRGYSMGWFRQAPGKEREFVAAIVWSGGNTYYEDSVKGRFTISRDNAKNTMYLQMTSLKPEDSATYYCAAKIRPYIFKIAGQYDYWGQGTLVTVSSGGGGSGGGGSGGGGSGGGGSQVQLQESGGGSVEAGGSLRLSCARSGWPYSTYSMNWFRQAPGKEREAVAGISSTMSGIIFAESKAGQFTISQDNAKNTVYLQMNNLKPEDTAIYYCAARRYFSLSSSSDDFDYWGQGTQVTVSSAAAYPYDVPDYGSSPSTPPTPSPSTPPHHHHHH"}, "B9": {"name": "C25 (C37-L3-C36) (bispecific antibody)", "chain": "EVQLVESGGGLVQPGESLTLSCVVAGSIFSFAMSWYRQAPGKERELVARIGSDDRVTYADSVKGRFTISRDNIKRTAGLQMNSLKPEDTAVYYCNAQTDLRDWTVREYWGQGTQVTVSSGGGGSGGGGSGGGGSGGGGSQVQLQESGGGSVEAGGSLRLSCARSGWPYSTYSMNWFRQAPGKEREAVAGISSTMSGIIFAESKAGQFTISQDNAKNTVYLQMNNLKPEDTAIYYCAARRYFSLSSSSDDFDYWGQGTQVTVSSAAAYPYDVPDYGSSPSTPPTPSPSTPPHHHHHH", "notes": "also called C25 (TYR); non-covalent construct C25"}, "B10": {"name": "C37 (anti-CD16a sdAb) (VHH)", "VHH": "EVQLVESGGGLVQPGESLTLSCVVAGSIFSFAMSWYRQAPGKERELVARIGSDDRVTYADSVKGRFTISRDNIKRTAGLQMNSLKPEDTAVYYCNAQTDLRDWTVREYWGQGTQVTVSS", "notes": "also called CD16a sdAb domain alone; monospecific anti-CD16a sdAb"}, "B11": {"name": "C28 (bispecific antibody)", "chain": "EVQLVESGGGLVQPGGSLRLSCAASGDIYKSFDMGWYRQAPGKQRDLVAVIGSRGNNRGRTNYADSVKGRFTISRDGTGNTVYLLMNKLRPEDTAIYYCNTAPLVAGRPWGRGTLVTVSSGGGGSGGGGSGGGGSGGGGSQVQLQESGGGSVEAGGSLRLSCARSGWPYSTYSMNWFRQAPGKEREAVAGISSTMSGIIFAESKAGQFTISQDNAKNTVYLQMNNLKPEDTAIYYCAARRYFSLSSSSDDFDYWGQGTQVTVSSAAAYPYDVPDYGSSPSTPPTPSPSTPPHHHHHH"}}, "key": {"[1]": {"target": "T1, PSMA expressed on target cells (PC3pip cells, high density; 22Rv1 cells, low density) (UniProt Q04609 1-750, limits assumed)", "T1 sequence (Q04609 whole entry)": "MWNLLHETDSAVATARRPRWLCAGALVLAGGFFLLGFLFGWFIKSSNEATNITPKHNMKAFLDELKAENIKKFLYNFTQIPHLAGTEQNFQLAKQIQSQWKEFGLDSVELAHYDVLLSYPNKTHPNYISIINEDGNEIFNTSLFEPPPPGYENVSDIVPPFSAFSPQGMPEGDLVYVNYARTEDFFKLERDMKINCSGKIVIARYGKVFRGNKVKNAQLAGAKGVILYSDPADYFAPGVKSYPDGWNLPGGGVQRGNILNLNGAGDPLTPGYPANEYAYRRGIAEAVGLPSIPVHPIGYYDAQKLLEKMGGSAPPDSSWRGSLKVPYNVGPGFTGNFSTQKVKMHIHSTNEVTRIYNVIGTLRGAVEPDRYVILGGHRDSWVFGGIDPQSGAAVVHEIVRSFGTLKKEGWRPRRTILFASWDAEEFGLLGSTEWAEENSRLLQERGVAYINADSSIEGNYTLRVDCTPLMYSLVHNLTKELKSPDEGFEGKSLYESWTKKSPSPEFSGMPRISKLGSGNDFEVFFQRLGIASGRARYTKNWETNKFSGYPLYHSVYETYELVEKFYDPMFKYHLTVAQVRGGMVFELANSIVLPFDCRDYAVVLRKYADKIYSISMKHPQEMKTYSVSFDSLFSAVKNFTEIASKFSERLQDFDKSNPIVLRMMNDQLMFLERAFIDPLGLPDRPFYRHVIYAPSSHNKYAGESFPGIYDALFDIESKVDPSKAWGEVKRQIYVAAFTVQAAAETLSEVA", "assay": "cell-based or functional assay"}, "[2]": {"target": "T2, Biotinylated his-tagged human PSMA (human, UniProt Q04609 44-750, limits assumed, biotinylated (site not stated))", "T2 construct": "also called immobilized PSMA; not shown: his tag", "T2 sequence (Q04609 44-750 limits assumed)": "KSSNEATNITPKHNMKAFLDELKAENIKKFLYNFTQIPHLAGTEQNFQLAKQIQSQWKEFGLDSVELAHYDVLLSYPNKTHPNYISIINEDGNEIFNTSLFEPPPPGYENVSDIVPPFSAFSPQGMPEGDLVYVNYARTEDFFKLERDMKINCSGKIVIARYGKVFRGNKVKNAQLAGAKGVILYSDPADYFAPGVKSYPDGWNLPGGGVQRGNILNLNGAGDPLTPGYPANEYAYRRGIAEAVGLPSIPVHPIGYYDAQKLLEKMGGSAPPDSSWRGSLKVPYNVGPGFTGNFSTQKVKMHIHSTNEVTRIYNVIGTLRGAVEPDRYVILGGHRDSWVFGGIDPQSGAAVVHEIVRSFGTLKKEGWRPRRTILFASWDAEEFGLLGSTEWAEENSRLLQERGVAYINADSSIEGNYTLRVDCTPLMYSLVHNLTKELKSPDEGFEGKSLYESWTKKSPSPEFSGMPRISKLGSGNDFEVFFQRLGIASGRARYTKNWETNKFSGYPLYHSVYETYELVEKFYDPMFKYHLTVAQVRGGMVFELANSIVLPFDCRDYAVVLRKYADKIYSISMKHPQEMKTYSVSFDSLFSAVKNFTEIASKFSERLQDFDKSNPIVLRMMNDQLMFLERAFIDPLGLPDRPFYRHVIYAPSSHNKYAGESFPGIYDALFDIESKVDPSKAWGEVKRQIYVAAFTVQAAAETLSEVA", "assay": "BLI, biotinylated his-tagged human PSMA on streptavidin sensors, pH 5.7"}, "[3]": {"target": "T1, PSMA expressed on target cells (PC3pip …)", "assay": "cell-based or functional assay", "remark": "listed apart in the source"}, "[4]": {"target": "T1, PSMA expressed on target cells (PC3pip …)", "assay": "cell-based or functional assay", "remark": "listed apart in the source"}, "[5]": {"target": "T2, Biotinylated his-tagged human PSMA", "assay": "BLI, biotinylated his-tagged human PSMA on streptavidin sensors, pH 7.4"}, "[6]": {"target": "T3, biotin-labeled CD16a (Acro P/N CDA-H82E8) (human, UniProt P08637 17-208, biotin-labeled (site not stated))", "T3 construct": "also called recombinant human CD16a; immobilized CD16a", "T3 sequence (P08637 17-208 limits assumed)": "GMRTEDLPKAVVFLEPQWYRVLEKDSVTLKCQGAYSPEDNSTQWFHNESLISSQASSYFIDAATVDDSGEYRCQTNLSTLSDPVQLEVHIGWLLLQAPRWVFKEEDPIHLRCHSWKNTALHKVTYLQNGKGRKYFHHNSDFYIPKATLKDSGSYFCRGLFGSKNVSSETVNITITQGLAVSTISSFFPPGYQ", "assay": "BLI, biotin-labeled CD16a on streptavidin biosensors, pH 7.4"}, "[7]": {"target": "T1, PSMA expressed on target cells (PC3pip …)", "assay": "cell-based or functional assay", "remark": "listed apart in the source"}, "[8]": {"target": "T1, PSMA expressed on target cells (PC3pip …)", "assay": "cell-based or functional assay", "remark": "listed apart in the source"}, "[9]": {"target": "T1, PSMA expressed on target cells (PC3pip …)", "assay": "cell-based or functional assay", "remark": "listed apart in the source"}, "[10]": {"target": "T1, PSMA expressed on target cells (PC3pip …)", "assay": "cell-based or functional assay", "remark": "listed apart in the source"}, "[11]": {"target": "T3, biotin-labeled CD16a (Acro P/N …)", "assay": "BLI (Octet), biotin-CD16a on streptavidin sensors, dilutions from 200 nM to 3.125 nM"}}, "data": [{"binder": "B1", "values": [{"measurement": "EC50; T-cell luciferase reporter assay with PC3pip target cells, 6 hr", "setting": "[1]", "value": 5.33, "unit": "nM"}]}, {"binder": "B2", "values": [{"measurement": "EC50; T-cell luciferase reporter assay with PC3pip target cells, 6 hr", "setting": "[1]", "value": 0.51, "unit": "nM"}, {"measurement": "fold potency against C29; T-cell luciferase reporter assay, PC3pip", "setting": "[1]", "value": 11.8, "unit": "fold"}, {"measurement": "fold potency against the commercial CD3-PSMA bispecific antibody; T-cell luciferase reporter assay, PC3pip", "setting": "[1]", "value": 1.6, "unit": "fold"}]}, {"binder": "B3", "values": [{"measurement": "EC50; T-cell luciferase reporter assay with PC3pip target cells, 6 hr", "setting": "[1]", "value": 5.98, "unit": "nM"}]}, {"binder": "B4", "values": [{"measurement": "EC50; T-cell luciferase reporter assay with PC3pip target cells, 6 hr", "setting": "[1]", "value": 1.42, "unit": "nM"}]}, {"binder": "B5", "values": [{"measurement": "EC50; T-cell luciferase reporter assay with PC3pip target cells, 6 hr", "setting": "[1]", "value": 1.42, "unit": "nM"}, {"measurement": "fold potency against C33; T-cell luciferase reporter assay, PC3pip", "setting": "[1]", "value": 21.9, "unit": "fold"}]}, {"binder": "B6", "values": [{"measurement": "EC50; T-cell luciferase reporter assay with PC3pip target cells, 6 hr", "setting": "[1]", "value": 31.1, "unit": "nM"}]}, {"binder": "B7", "values": [{"measurement": "EC50; T-cell luciferase reporter assay with PC3pip target cells, 6 hr", "setting": "[1]", "value": 0.59, "unit": "nM"}, {"measurement": "fold efficacy against the commercial CD3-PSMA bispecific antibody; T-cell luciferase reporter assay, PC3pip", "setting": "[1]", "value": 1.2, "unit": "fold"}, {"measurement": "fold potency against C26; T-cell luciferase reporter assay, PC3pip", "setting": "[1]", "value": 12.7, "unit": "fold"}, {"measurement": "fold potency against the commercial CD3-PSMA bispecific antibody; T-cell luciferase reporter assay, PC3pip", "setting": "[1]", "value": 1.4, "unit": "fold"}]}, {"binder": "B8", "values": [{"measurement": "EC50; T-cell luciferase reporter assay with PC3pip target cells, 6 hr", "setting": "[1]", "value": 7.4, "unit": "nM"}]}, {"binder": "B9", "values": [{"measurement": "Kd", "setting": "[2]", "value": 1570, "unit": "nM"}, {"measurement": "koff", "setting": "[2]", "value": 0.0483, "unit": "s⁻¹"}, {"measurement": "kon", "setting": "[2]", "value": 30800, "unit": "M⁻¹ s⁻¹"}, {"measurement": "EC50 [nM]; NK cell-mediated killing of PC3pip cells, 5 h washout, 20 h incubation", "setting": "[3]", "value": 26.2, "unit": "nM"}, {"measurement": "EC50; ADCC reporter assay, PC3pip 4 h washout, 24 h endpoint", "setting": "[4]", "value": 0.141, "unit": "nM"}, {"measurement": "Kd", "setting": "[5]", "value": 1160, "unit": "nM"}, {"measurement": "koff", "setting": "[5]", "value": 0.03, "unit": "s⁻¹"}, {"measurement": "kon", "setting": "[5]", "value": 25900, "unit": "M⁻¹ s⁻¹"}, {"measurement": "Kd", "setting": "[6]", "value": 1.11, "unit": "nM"}, {"measurement": "koff", "setting": "[6]", "value": 0.000152, "unit": "s⁻¹"}, {"measurement": "kon", "setting": "[6]", "value": 137000, "unit": "M⁻¹ s⁻¹"}, {"measurement": "EC50 [nM]; primary human NK cell-mediated killing of PC3pip cells, no washout, 20 h incubation", "setting": "[7]", "value": 7.02, "unit": "nM"}, {"measurement": "EC50; ADCC reporter assay, 22Rv1 4 h washout, 24 h endpoint", "setting": "[8]", "value": 62.6, "unit": "nM"}, {"measurement": "EC50; ADCC reporter assay, 22Rv1 24 h continual", "setting": "[9]", "value": 12.1, "unit": "nM"}, {"measurement": "EC50; ADCC luciferase reporter assay (Jurkat CD16a V158 reporter cells), PC3pip 24 h continuous", "setting": "[10]", "value": 9.2, "unit": "nM"}]}, {"binder": "B10", "values": [{"measurement": "binding result", "setting": "[11]", "value": "binds"}]}, {"binder": "B11", "values": [{"measurement": "EC50; T-cell luciferase reporter assay with PC3pip target cells, 6 hr", "setting": "[1]", "value": 14.8, "unit": "nM"}]}]}
